Here are results for two substances from paper PMC4259310.

Test [1] has as its target Snake Adenovirus 1 (SnAdV-1) fibre head domain, construct 234-345, native (Snake Adenovirus 1 (SnAdV-1)). The test is described as follows: crystal structure.
Test [2] has as its target Snake Adenovirus 1 (SnAdV-1) fibre protein construct 171-345 (Snake Adenovirus 1 (SnAdV-1)). The test is described as follows: crystal structure.

What is called stoichiometry N is the number of molecules, sites or subunits per partner or assembly. “Snake Adenovirus 1 (SnAdV-1) fibre head domain, construct 234-345, native (domain or fragment)”: the stoichiometry N in test [1] was determined as 3. In test [2], “Snake Adenovirus 1 (SnAdV-1) fibre protein construct 171-345 (domain or fragment)” gave a stoichiometry N of 3.
